Experimental data: patent publication US20200157187A1 (LOYOLA UNIVERSITY CHICAGO, published 2020)

T1: TGF-β3 (UniProt P10600 301-412)
T1 sequence (looked up): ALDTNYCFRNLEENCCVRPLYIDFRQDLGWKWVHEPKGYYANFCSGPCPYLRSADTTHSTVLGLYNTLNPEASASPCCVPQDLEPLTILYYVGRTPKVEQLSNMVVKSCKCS

T2: TGF-β2 (UniProt P61812 303-414)
T2 sequence (looked up): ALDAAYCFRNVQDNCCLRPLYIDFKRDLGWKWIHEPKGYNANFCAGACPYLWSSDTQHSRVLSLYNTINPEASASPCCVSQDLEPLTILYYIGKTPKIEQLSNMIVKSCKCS


Columns and labels:
[1] = target: T3, active TGF-β1, recombinant (Ala279-Ser390) (UniProt P01137 279-390); assay: SPR, chip coated with active TGF-β, positive control antibody
T3 construct: range 279-390; The background describes the growth factor domain as a dimer; also called purified active TGF-β1

[2] = target: T3, active TGF-β1, recombinant …; assay: SPR, kinetic analysis on active TGF-β
TGF-β3 = target: T1, TGF-β3; assay: ELISA on coated TGF-β isoforms
TGF-β2 = target: T2, TGF-β2; assay: ELISA on coated TGF-β isoforms
[3] = target: T4, active TGF-β on the surface of human CD4+CD25+ Tregs (human, UniProt P01137 279-390, The active form is a disulfide-linked homodimer of the growth factor domain; one chain is given.); assay: confocal microscopy of human Tregs, detected with anti-rabbit Fab-AF488
T4 construct: also called surface TGF-β; surface active TGF-β
Method: FIGS. 5A and 5B represent functional characterization of 6Fc. FIG. 5A represents an effect of 6Fc on phosphorylation of SMAD2/3. […] As a control, WTFc was used (shown on the right panel). Phosphorylation of SMAD2,3 was assessed by flow cytometry (solid line). Dotted lines show isotype control staining. FIG. 5B represents confocal images of Tregs stained with the monobody-Ig fusion proteins. Purified human PBMC-derived Tregs were mixed with 6Fc or WTFc (40 μg/ml), followed by anti-rabbit Fab-AF488 (green) and Hoechst-33342 (blue) staining. Single-cell images were obtained using an LSM-510 confocal microscope (×40).

T3 sequence (P01137 279-390 limits assumed, form in doubt): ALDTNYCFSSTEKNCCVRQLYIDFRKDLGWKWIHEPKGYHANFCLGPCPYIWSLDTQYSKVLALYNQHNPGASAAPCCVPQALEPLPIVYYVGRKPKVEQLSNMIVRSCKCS
T4 sequence (P01137 279-390 limits assumed): as the sequence (P01137 279-390 limits assumed, form in doubt) above

Binder | Kd [1] | koff [2] | kon [2] | binding result (TGF-β3) | binding result (TGF-β2) | binding result [3]
anti-TGF-β monoclonal antibody 1D11 (antibody, V domains shown) VH: QVQLQQSGPELVRPGASVKLSCKASGYIFITYWMNWVKQRPGQGLEWIGQIFPASGSTNYNEMFEGKATLTVDTSSSTAYMQLSSLTSEDSAVYYCARGDGNYALDAMDYWGQGTSVTVSS VL: DIVLTQSPASLAVSLGQRATISCRASESVDSYGNSFMHWYQQKSGQPPKLLIYLASNLESGVPARFSGSGSRTDFTLTIDPVEADDAATYYCQQNNEDPLTFGAGTKLEIK | 1.9 nM | 0.00028 s⁻¹ | 14000 M⁻¹ s⁻¹ | – | – | –
WTFc (wild-type FN3 fused to rabbit IgG constant region CH2/CH3, His6 tag) (Fc fusion, Control fusion protein; also called wild-type FN3 fusion protein; not shown: rabbit IgG constant region, CH2/CH3 (Cγ2-Cγ3) domains) chain (part 1 of 2): AVSDVPRKLEVVAATPTSLLISWDAPIKRRLYYRITYGETGGNSPVQEFTVPGSKSTATISGLKPGVDYTITVYAVTYPAPYSKPISINYR chain (part 2 of 2): HHHHHH | – | – | – | no binding | no binding | no binding (tested: 40 µg/ml)
